Laboratory results reported in publication PMC11421798, “Subfunctionalization of NRC3 altered the genetic structure of the Nicotiana NRC network” (PLOS Genetics, 2024).

Target: the molecule itself
Experiment: native gel or EMSA; BN-PAGE (NativePAGE 4-16% Bis-Tris) of 1% digitonin extracts of nrc2/3/4_KO N. benthamiana leaves at 2 dpi; NRC3 variant co-expressed with Rpi-blb2, without AVRblb2

Row | Protein | stoichiometry N
1 | N^L21ENN (NbNRC3c with L21E) (natural protein, N. benthamiana, UniProt A0A5J6DCA3 1-888, looked up, NRC3 (NbNRC3c) of Nicotiana benthamiana with L21E in the CC domain; L21E is named only in the methods of the BN-PAGE; the results call this protein NNN; also called NNN (in the BN-PAGE); source: nrc2/3/4_KO N. benthamiana leaves, agroinfiltrated, in digitonin extract) MADVAADVAVKFLVENLMQLEIDNADLIIGIKGEVENLLQDLNDFNAFLKQAAKSRRDNEVLKSLVKKIRKVVNDAEDSIDKFVIEAKRHDDKNKFAQWFHLTHVARAKGVADEIKTIRERVKEIRQNDAYGLQAITSYDNFNQGAQERKVPVVEEDDVVGFDDEAKTVIDRLIGGSDYVVPVVGMPGLGKTTLAYKIFKDSTVEYEFFNRIWVYVSQSFNRREIFLNIISKFTRNTKQYHDTPEEELANEIKELLGKGGKYLVVLDDVWTREAWDRIKIAFPNNNKRNRVLMTTRQNNVAKSCNDKPHDLKFLTENESWELLEKRVFHKEKCPFELELPGKSIAKKCRGLPLAIVVIAGALIGKGKTTREWELVADSVGEHLINRDPENCKKLVQMSYDRLPYDLKACFLYCGAFPGGSEISAQKLICLWIAEGFIQYQGPLTLEDIAEDHLNDLVNRNLVMVMKRSSSGQIKTCRVHDMLHEFCRHEAMMEENLFQEIKRGQEHSFPEKQELASYRRLCIHSSVSEFLSTKPFAEHVRSFLCFASKKFEMPLGEIPAIPRAFPLLRVLDAESIKFSRFSREFFKLFHLRYIAFSTDSIMTIPTNIGNLWNVQTLIIETQQGTLDIKADIWNMTRLRHVCINASATLPSPKRPKSSKDNLVNRCLQTLSTIAPECCTAEVFTRTPNLKKLGVRGKIDALLETSKDGSSSGLFSNIGKLDCLEKLKLVNDTRQSRKQLHLPPAYIFPQKLKKLTLIDTWFEWKDMSILGLLEYLEVLKLKENAFRGQSWEPEDSGFPRLQVLWIERTDLSSWKASSGNFPRLKCLVLIACDNLKELPAELADVENLQLMELQSTSVSAAKSARAILKKKQQKVGSGFKLSVFPPDLGL | 2
2 | N^L21… (… with L21E) (natural protein, N. benthamiana, UniProt A0A5J6DCA3 1-888, looked up, L21E is named only in the methods of the BN-PAGE; source: nrc2/3/4_KO N. benthamiana leaves, agroinfiltrated, in digitonin extract) MADVAADVAVKFLVENLMQLEIDNADLIIGIKGEVENLLQDLNDFNAFLKQAAKSRRDNEVLKSLVKKIRKVVNDAEDSIDKFVIEAKRHDDKNKFAQWFHLTHVARAKGVADEIKTIRERVKEIRQNDAYGLQAITSYDNFNQGAQERKVPVVEEDDVVGFDDEAKTVIDRLIGGSDYVVPVVGMPGLGKTTLAYKIFKDPKVEYEFFNRIWVYVSQSFKRREIFLNIISKFTRNTKQYHDTPEEELANEIKELLGKGGKYLVVLDDVWTREAWDRIKIAFPNNNKRNRVLMTTRQNNVAKSCNDKPHDLKFLTENESWELLEKRVFHKEKCPFELELPGKSIAKKCRGLPLAIVVIAGALIGKGKTTREWELVADSVGEHLINRDPENCKKLVQMSYDRLPYDLKACFLYCGAFPGGSEISAQKLICLWIAEGFIQYQGPLTLEDIAEDHLNDLVNRNLVMVMKRSSSGQIKTCRVHDMLHEFCRHEAMMEENLFQEIKRGQEHSFPEKQELASYRRLCIHSSVSEFLSTKPFAEHVRSFLCFASKKFEMPLGEIPAIPRAFPLLRVLDAESIKFSRFSREFFKLFHLRYIAFSTDSIMTIPTNIGNLWNVQTLIIETQQGTLDIKADIWNMTRLRHVCTNASATLPSPKRPKSSKDNLVNRCLQTLSTIAPECCTAEVFTRTPNLKKLGVRGKIDALLETSKDGSSSGLFSNIGKLDCLEKLKLVNDTRQSRKQLHLPPAYIFPQKLKKLTLIDTWFEWKDMSILGLLEYLEVLKLKENAFRGQSWEPEDSGFPRLQVLWIERTDLSSWKASSGNFPRLKHLVLIACDKLKELPAELADVENLQLMELQSTSVSAAKSARAILKKKQQKVGSGFKLSVFPPDLGL | 2
